Results as given in article PMC6778148.
pKd: −log10 of the molar value.

Target: fluorescein-labelled divalent stargazin-derived peptide ligand
Assay: fluorescence polarisation; direct titration: 50 nM fluorescein-labelled stargazin ligand (divalent or monovalent) against increasing concentrations of PDZ domains; apparent KD

pKd: 6.70
Substance: SAP97 tandem PDZ domains 1 and 2 (SAP97-12), from pET-NO (domain or fragment)
